# ± gives the standard deviation of the averaged measurements.
# B1: library; a variant is named by its letters at N, in order (parent)
# chain: GCUGUCACCGGUGCUUGGUACGUUAUAUUCAGCCGGUCUGAUGAGUCUNNNNNNAGACGAAACAGC
# Experiments:
# (6R,S)-folinic acid [1] = variants of: B1; assay: FACS-Seq fitted mean relative fluorescence mCherry/BFP without ligand (log10 relative fluorescence); HEK293T overexpressing SLC46A1; higher = higher reporter protein expression; details: without (6R,S)-folinic acid; ligand present: no
# In short: (§1)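 An mCherry reporter containing the ribozyme switch and an EF1α-BFP marker were introduced by lentivirus into HEK293T libraries. Cells were enriched, incubated 48 h with or without ligand, sorted into 6 bins by mCherry/BFP, and bin genomic DNA was PCR-amplified, barcoded and sequenced on MiSeq. Fluorescence represents the normalized fitted normal mean of the bin counts. Fitting was done on log10(mCherry/BFP), scaling to five spiked-in control ribozymes.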
# (6R,S)-folinic acid [2] = variants of: B1; assay: normalized RNA/DNA level without ligand (relative to sTRSVctl = 100) (log10 (% of sTRSVctl)); HEK293T overexpressing SLC46A1; higher = less ribozyme self-cleavage, higher mRNA level; details: without (6R,S)-folinic acid; ligand present: no
# In short: (§2)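 HEK293T cells received ligand, where used, 1 h before being transfected with 4 µg per 6-well well of library plasmids encoding reporter-linked ribozyme switches. After 72 h, RNA was extracted with EDTA and sequenced. RNA level was derived from RNA reads per DNA read, normalized to a spiked-in non-cleaving sequence or the top sequences, then scaled and log-transformed. Values were ×100 then log10, the top set was 25 sequences, and the minimum was 100 DNA reads.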
# (6R,S)-folinic acid [3] = variants of: B1; assay: FACS-Seq fitted mean relative fluorescence mCherry/BFP with ligand (log10 relative fluorescence); HEK293T overexpressing SLC46A1; ligand concentration (+) FACS-Seq: 6 mM; higher = higher reporter protein expression; details: with (6R,S)-folinic acid; ligand present: yes
# In short: as §1
# (6R,S)-folinic acid [4] = variants of: B1; assay: normalized RNA/DNA level with ligand (relative to sTRSVctl = 100) (log10 (% of sTRSVctl)); HEK293T overexpressing SLC46A1; ligand concentration (+) RNA-Seq: 6 mM; higher = less ribozyme self-cleavage, higher mRNA level; details: with (6R,S)-folinic acid; ligand present: yes
# In short: as §2
Variant,"FACS-Seq fitted mean (log10) ((6R,S)-folinic acid [1])","normalized RNA/DNA level without ligand (log10) ((6R,S)-folinic acid [2])","FACS-Seq fitted mean (log10) ((6R,S)-folinic acid [3])","normalized RNA/DNA level with ligand (log10) ((6R,S)-folinic acid [4])"
CCUUUA,0.459 ± 0.027,2.019 ± 0.018,0.136 ± 0.057,2.06 ± 0.053
UAAUGU,0.615 ± 0.038,1.896 ± 0.0068,0.695 ± 0.092,2 ± 0.055
UGACAG,0.327 ± 0.16,1.82 ± 0.022,0.34 ± 0.028,1.971 ± 0.0094
GGUAGU,0.312 ± 0.15,1.988 ± 0.0021,0.316 ± 0.16,2.01 ± 0.055
AUUGUG,0.281 ± 0.041,1.8 ± 0.0029,0.524 ± 0.1,1.99 ± 0.035
GCAUAU,-0.109 ± 0.058,1.97 ± 0.029,-0.0866 ± 0.33,2 ± 0.045
GCAUAA,0.2764 ± 0.00097,1.968 ± 0.011,0.171 ± 0.029,2 ± 0.027
AUCAGU,-0.132 ± 0.056,1.97 ± 0.021,-0.238 ± 0.53,1.996 ± 0.017
AGCAAA,0.455 ± 0.047,1.979 ± 0.004,0.532 ± 0.21,2 ± 0.028
AAGUUG,0.479 ± 0.061,1.914 ± 0.013,0.582 ± 0.24,2.02 ± 0.054
UAGACU,0.606 ± 0.02,2.0068 ± 0.00026,0.559 ± 0.038,1.98 ± 0.051
AUGGUA,0.132 ± 0.069,1.91 ± 0.0083,0.165 ± 0.17,1.98 ± 0.038
CCAGAU,0.213 ± 0.0078,2.003 ± 0.0083,0.000255 ± 0.023,2.01 ± 0.027
UCGAAU,0.347 ± 0.072,1.932 ± 0.013,0.308 ± 0.13,2 ± 0.044
AAGGAG,0.211 ± 0.081,1.789 ± 0.017,0.263 ± 0.14,2 ± 0.046
GCCAUG,0.2783 ± 0.0012,1.982 ± 0.019,0.209 ± 0.15,2.01 ± 0.026
GAAUAC,0.463 ± 0.14,1.974 ± 0.0095,0.313 ± 0.25,2 ± 0.053
AAAUGC,0.594 ± 0.028,2.03 ± 0.007,0.713 ± 0.3,2.03 ± 0.033
UAGCAG,0.207 ± 0.14,1.755 ± 0.0028,0.401 ± 0.18,1.957 ± 0.019
UGAGCG,0.157 ± 0.15,1.736 ± 0.012,0.218 ± 0.39,1.98 ± 0.024
CGGAUA,0.0197 ± 0.04,1.9689 ± 0.0014,-0.118 ± 0.034,1.98 ± 0.061
AAGAAC,0.369 ± 0.066,1.985 ± 0.012,0.624 ± 0.1,2 ± 0.038
UGAAGG,0.12 ± 0.034,1.645 ± 0.012,0.569 ± 0.24,1.96 ± 0.042
AUAACC,-0.122 ± 0.045,2.011 ± 0.015,-0.194 ± 0.26,2 ± 0.034

Variant,"FACS-Seq fitted mean (log10) ((6R,S)-folinic acid [1])","normalized RNA/DNA level without ligand (log10) ((6R,S)-folinic acid [2])","FACS-Seq fitted mean (log10) ((6R,S)-folinic acid [3])","normalized RNA/DNA level with ligand (log10) ((6R,S)-folinic acid [4])"
AGUUGA,0.17 ± 0.13,1.964 ± 0.015,0.105 ± 0.028,2.018 ± 0.016
CUUGGC,0.556 ± 0.084,2.062 ± 0.0022,0.651 ± 0.35,2.04 ± 0.037
GUAAGG,0.183 ± 0.078,1.946 ± 0.015,0.381 ± 0.047,2.025 ± 0.015
AUAUAC,0.205 ± 0.083,1.994 ± 0.015,0.279 ± 0.065,2 ± 0.041
AUAUAU,0.272 ± 0.026,1.947 ± 0.011,0.459 ± 0.073,1.99 ± 0.02
UCAAGA,0.185 ± 0.046,1.9951 ± 0.0012,0.305 ± 0.13,2.028 ± 0.014
UCUUGG,0.272 ± 0.099,1.904 ± 0.0099,0.131 ± 0.092,1.99 ± 0.022
AAAAUA,0.397 ± 0.014,1.9645 ± 0.00067,0.47 ± 0.066,2 ± 0.025
GGCAUA,0.173 ± 0.12,2.032 ± 0.012,0.286 ± 0.1,2.01 ± 0.027
UACACG,0.231 ± 0.14,1.808 ± 0.0037,0.348 ± 0.022,1.95 ± 0.053
CAUAUU,0.434 ± 0.11,1.982 ± 0.0059,0.246 ± 0.17,1.98 ± 0.025
GAUAAA,0.3694 ± 0.0011,1.956 ± 0.0085,0.397 ± 0.027,2 ± 0.034
GAUAAU,0.0792 ± 0.026,1.97 ± 0.02,0.23 ± 0.02,2.01 ± 0.037
UGACGA,0.311 ± 0.052,1.9519 ± 0.0017,0.493 ± 0.015,2.04 ± 0.014
UAACGA,0.256 ± 0.05,1.93 ± 0.0022,0.34 ± 0.11,2.01 ± 0.036
UUUCCG,0.446 ± 0.012,1.918 ± 0.012,0.493 ± 0.15,1.99 ± 0.05
AGCCGU,0.507 ± 0.044,2.018 ± 0.017,0.3424 ± 0.0012,2.0145 ± 0.00041
ACGCUU,-0.382 ± 0.065,2.057 ± 0.018,-0.593 ± 0.26,2.047 ± 0.0046
AAGACG,0.519 ± 0.038,1.92 ± 0.0073,0.622 ± 0.38,2 ± 0.058
AAUAAU,0.5328 ± 0.0041,1.968 ± 0.0071,0.56 ± 0.14,2.003 ± 0.011
UUCUGC,0.411 ± 0.14,2.049 ± 0.02,0.336 ± 0.038,2.04 ± 0.052
CUGAAA,0.38 ± 0.12,1.986 ± 0.0076,0.578 ± 0.071,2 ± 0.014
AGACCA,0.1 ± 0.31,2.05 ± 0.0039,0.262 ± 0.072,2.03 ± 0.028
AAACGA,0.186 ± 0.039,2 ± 0.018,0.192 ± 0.16,2.03 ± 0.026

Variant,"FACS-Seq fitted mean (log10) ((6R,S)-folinic acid [1])","normalized RNA/DNA level without ligand (log10) ((6R,S)-folinic acid [2])","FACS-Seq fitted mean (log10) ((6R,S)-folinic acid [3])","normalized RNA/DNA level with ligand (log10) ((6R,S)-folinic acid [4])"
AAAUAU,0.147 ± 0.058,1.949 ± 0.002,0.275 ± 0.077,2 ± 0.039
AAACAC,0.222 ± 0.096,2.001 ± 0.01,0.0733 ± 0.14,2.01 ± 0.026
UGCGAU,0.213 ± 0.026,1.85 ± 0.019,-0.0289 ± 0.033,1.98 ± 0.029
UUCAGG,0.449 ± 0.081,1.894 ± 0.0032,0.666 ± 0.2,1.98 ± 0.057
UUAAAG,0.413 ± 0.085,1.822 ± 0.008,0.519 ± 0.17,1.94 ± 0.042
UCGGAU,0.33 ± 0.067,1.946 ± 0.019,0.517 ± 0.14,2.01 ± 0.024
UAAGUU,0.118 ± 0.029,1.952 ± 0.0089,0.124 ± 0.17,2.01 ± 0.041
GGGGCC,-0.232 ± 0.1,2.05 ± 0.023,-0.6 ± 0.34,2.05 ± 0.015
UAACUU,0.511 ± 0.0079,1.994 ± 0.011,0.408 ± 0.12,2 ± 0.045
UACCUG,0.402 ± 0.083,1.86 ± 0.039,0.39 ± 0.14,1.99 ± 0.052
GAGAAC,0.435 ± 0.033,1.964 ± 0.0051,0.598 ± 0.32,2.02 ± 0.045
UGGAUG,0.178 ± 0.037,1.68 ± 0.017,0.784 ± 0.046,1.958 ± 0.015
AUUUGG,0.293 ± 0.04,1.88 ± 0.0039,0.37 ± 0.04,1.96 ± 0.023
CGCAUA,0.387 ± 0.012,1.98 ± 0.0046,0.156 ± 0.073,2 ± 0.059
CAGGAC,0.301 ± 0.073,1.97 ± 0.022,0.0891 ± 0.079,1.97 ± 0.078
GGAUUU,0.647 ± 0.23,2.02 ± 0.034,0.596 ± 0.19,2.01 ± 0.048
GUUGAC,0.276 ± 0.11,1.949 ± 0.018,0.451 ± 0.087,2.01 ± 0.028
UCGACU,0.225 ± 0.028,2.011 ± 0.0057,0.701 ± 0.28,2.01 ± 0.022
AUGAAG,0.432 ± 0.049,1.836 ± 0.0092,0.578 ± 0.14,1.99 ± 0.048
GUCCGG,-0.054 ± 0.18,2.042 ± 0.011,-0.0351 ± 0.41,2.05 ± 0.063
GUCCGA,0.497 ± 0.025,2.017 ± 0.0041,0.383 ± 0.061,2.007 ± 0.0092
UCUGGG,0.501 ± 0.098,1.836 ± 0.012,0.524 ± 0.01,1.98 ± 0.027
GGUAUG,0.288 ± 0.015,1.986 ± 0.01,0.241 ± 0.14,2.01 ± 0.021
AUAGUG,0.15 ± 0.12,1.59 ± 0.023,0.795 ± 0.071,1.93 ± 0.024
